Here are results for ten substances from PMC7778609.

Test [1] deals with human FcγRIIIa^F158 extracellular domain with AviTag and 6×his tag (human) (UniProt P08637). Kind of test: SPR; Biacore T200, HBS-EP+ buffer, 20 °C; 500 nM his-tagged FcγR extracellular domains captured by anti-his antibody on a CM5 chip; twofold serially diluted antibody variants injected (120 s association, 130 s dissociation, 30 μL/min); 1:1 binding kinetics model or steady state affinity model. (Surface plasmon resonance follows binding to a sensor surface in real time, without labels.)

In test [2] the target is human FcγRIIa^R131 extracellular domain with AviTag and 6×his tag (human). The description is as above.
Test [3] deals with human FcγRIIIa^V158 extracellular domain with AviTag and 6×his tag (human). Described as above.
The target in test [4] is human FcγRIIb extracellular domain with AviTag and 6×his tag (human) (UniProt P31994). Described as above.
For test [5], the target named is human FcγRIIa^H131 extracellular domain with AviTag and 6×his tag (human) (UniProt P12318). The test is described as above.
Test [6] has as its target human FcRn, his-tagged (human) (UniProt P55899). In words: SPR; as a1, his-tagged FcRn captured by anti-his antibody, antibody variants injected; pH 6.
Test [7] has as its target human FcγRI extracellular domain, his-tagged (human) (UniProt P12314). In words: SPR; Biacore T200, HBS-EP+ buffer, 20 °C; 500 nM his-tagged FcγR extracellular domains captured by anti-his antibody on a CM5 chip; twofold serially diluted antibody variants injected (120 s association, 130 s dissociation, 30 μL/min); 1:1 binding kinetics model or steady state affinity model.

Chain of human FcRn, his-tagged (human) (P55899 24-297): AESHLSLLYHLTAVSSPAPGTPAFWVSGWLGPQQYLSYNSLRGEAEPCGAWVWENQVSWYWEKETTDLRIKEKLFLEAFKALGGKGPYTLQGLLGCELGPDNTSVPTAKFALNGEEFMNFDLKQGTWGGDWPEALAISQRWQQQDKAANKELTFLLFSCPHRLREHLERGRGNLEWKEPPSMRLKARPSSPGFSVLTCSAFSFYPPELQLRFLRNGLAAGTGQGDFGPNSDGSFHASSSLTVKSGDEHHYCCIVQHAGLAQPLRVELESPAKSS
Chain of human FcγRIIa^H131 extracellular domain with AviTag and 6×his tag (human) (P12318 34-217): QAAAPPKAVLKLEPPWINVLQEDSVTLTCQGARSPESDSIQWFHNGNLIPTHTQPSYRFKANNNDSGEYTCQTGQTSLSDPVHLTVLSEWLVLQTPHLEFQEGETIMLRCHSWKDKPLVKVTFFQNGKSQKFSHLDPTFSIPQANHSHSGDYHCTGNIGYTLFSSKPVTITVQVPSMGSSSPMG
Chain of human FcγRI extracellular domain, his-tagged (human) (P12314 16-292): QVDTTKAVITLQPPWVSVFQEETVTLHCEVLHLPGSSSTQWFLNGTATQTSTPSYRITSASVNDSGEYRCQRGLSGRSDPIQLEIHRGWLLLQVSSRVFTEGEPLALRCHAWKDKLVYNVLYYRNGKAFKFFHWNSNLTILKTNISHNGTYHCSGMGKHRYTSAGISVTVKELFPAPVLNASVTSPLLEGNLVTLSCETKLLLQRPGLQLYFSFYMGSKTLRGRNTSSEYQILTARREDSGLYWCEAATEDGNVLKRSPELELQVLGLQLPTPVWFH
Chain of human FcγRIIb extracellular domain with AviTag and 6×his tag (human) (P31994 43-217): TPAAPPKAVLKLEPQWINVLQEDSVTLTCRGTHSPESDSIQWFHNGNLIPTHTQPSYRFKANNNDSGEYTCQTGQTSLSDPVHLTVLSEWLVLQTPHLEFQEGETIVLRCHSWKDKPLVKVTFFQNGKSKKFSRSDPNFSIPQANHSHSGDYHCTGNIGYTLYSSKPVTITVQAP
Chain of human FcγRIIIa^F158 extracellular domain with AviTag and 6×his tag (human) (P08637 17-208): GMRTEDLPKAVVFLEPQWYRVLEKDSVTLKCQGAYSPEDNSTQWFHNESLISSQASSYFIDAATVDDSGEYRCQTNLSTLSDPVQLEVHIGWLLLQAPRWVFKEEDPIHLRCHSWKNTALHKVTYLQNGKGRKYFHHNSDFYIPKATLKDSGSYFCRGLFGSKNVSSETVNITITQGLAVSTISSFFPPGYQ

A word on the Kd: it is the free concentration of one partner at which half of the binding sites on the other are occupied at equilibrium, for simple one-to-one binding. A high value points to a looser complex. Regarding “defucosylated trastuzumab with Fc variant H268E/K326M/I332E (antibody)”, the Kd in test [1] came out at 3.55 nM; in test [2], 420 nM; in test [3] it was 1.71 nM; in test [4], 1030 nM; in test [5], 1040 nM.

For the substance “defucosylated trastuzumab with Fc variant H268E/K326S/I332E (antibody)”, the Kd in test [1] stood at 2.62 nM; in test [2] it was 369 nM; in test [3], 1.36 nM; in test [4], 1460 nM; in test [5], 669 nM.

Regarding “defucosylated trastuzumab with wild-type Fc (antibody)”, the Kd in test [1] was 46.5 nM; in test [2], 1460 nM; in test [3], 12.3 nM; in test [4] it was 1780 nM; in test [5] it was 2090 nM.

On to “fucosylated trastuzumab with wild-type Fc (antibody)”, for which the Kd in test [1] is 174 nM; in test [2] it was 1500 nM; in test [3] it was 38.5 nM; in test [4], 1240 nM; in test [5], 1000 nM.

With “rituximab with Fc variant H268E/A330T/I332E (antibody)”, the Kd in test [6] was 21.5 nM; in test [1], 156 nM; in test [2] it was 575 nM; in test [3], 61.1 nM; in test [7], 5.64 nM; in test [4], 906 nM. Further, the Kd in test [5] was 627 nM.

Turning to “rituximab with Fc variant H268E/A330Y/I332D (antibody)”, the dissociation constant Kd was found to be 21.9 nM in test [6]; 94 nM in test [1]; 680 nM in test [2]; 60.6 nM in test [3]; 5.04 nM in test [7]; 1470 nM in test [4]. The substance further displayed a Kd in test [5] of 526 nM.

Turning to “rituximab with Fc variant H268E/K326I/I332E (antibody)”, the Kd in test [6] was determined as 25.7 nM; in test [1] it was 311 nM; in test [2] it was 1210 nM; in test [3] it was 143 nM; in test [7], 6.11 nM; in test [4], 1690 nM. For the same substance, in test [5], the Kd was 1950 nM.

Regarding “rituximab with Fc variant H268E/K326M/I332E (antibody)”, the Kd is 26 nM in test [6]; 738 nM in test [2]; 69.1 nM in test [3]; 5.15 nM in test [7]; 1050 nM in test [4]; 882 nM in test [5].

With “rituximab with Fc variant H268E/K326S/I332E (antibody)”, the dissociation constant Kd in test [6] is 25 nM; in test [1], 151 nM; in test [2], 803 nM; in test [3], 74.7 nM; in test [7] it was 5.18 nM; in test [4], 1130 nM. In test [5], this substance yielded a Kd of 814 nM.

As to rituximab with wild-type Fc (antibody), the Kd in test [6] turned out to be 21 nM; in test [1], 944 nM; in test [2] it was 1250 nM; in test [3], 403 nM; in test [7] it was 8.67 nM; in test [4] it was 2410 nM. In test [5], this substance showed a Kd of 1090 nM.
